Experimental data reported in paper PMC10472834 (Cell metabolism, 2021).

Target: the molecule itself
Assay: cross-linking

B1: ME2-Flag catalytic-inactive mutant (CM), stably expressed in MOLM14 cells (natural protein)
chain: not shown
  stoichiometry N: 2
